Molecular target: T1, human Tie2-Fc (hTie2-Fc) (Homo sapiens, UniProt Q02763)
T1 construct: Purified human or mouse Tie2-Fc (i.e., Fc-conjugated extracellular domains of Tie2); purchased R&D Systems 313-TI-100
Assay: SPR binding to human Tie2-Fc
Conditions: 37°C; for binding to Tie2-Fc: human Tie2-Fc, 0.625–10 nM, pH 7.4, Fig9C
Description: To better understand the difficulties we had in observing Tie2 activation by VT, we sought to characterize the binding affinity and kinetics of VT to Tie2. Purified human or mouse Tie2-Fc (i.e., Fc-conjugated extracellular domains of Tie2) were first coupled to protein A sepharose beads for pull-down experiments (Fig9A and B) or immobilized on a Biacore CM5 sensor chip for surface plasmon resonance (SPR) experiments (Fig9C and Supplementary Fig S3).
Figure 9 Binding of Vasculotide vs. Ang1 variants to the extracellular domain of Tie2 • A–B Pull-down assay. Input ligands—rhAng1 (A) and VT (B)—were incubated with either protein A sepharose beads only, bead-conjugated mouse Tie2-Fc (mTie2), or bead-conjugated human Tie2-Fc (hTie2). […] The ‘unbound’ fraction is 7% of residual/free ligands remaining in the supernatant. • C Quantitative kinetics analysis by SPR. All analytes were run at increasing concentrations of 0.625, 1.25, 2.5, 5, and 10 nM, at 37°C and pH 7.4. […] Source data are available online for this figure. […]
9. Tie2 Receptor-Binding Assays
Vasculotide (VT) was manufactured by Bachem UK Ltd. T7c (CHHHRHSF) was synthesized by Genscript (Piscataway, NJ, USA). PEG-Cys consists of a single cysteine reacted to each of the 4 arms of PEG-maleimide (Sunbright PTE-100MA, NOF Corporation, Tokyo, Japan). BowAng1 (Ang1-Fd-Fc-Fd) was made and provided by Regeneron Pharmaceuticals, Inc. (Tarrytown, NY, USA). COMP-Ang1 was purified in the Kerbel lab from serum-free culture media conditioned by an engineered CHO cell line provided by Dr. Gou Young Koh (KAIST), according to published protocols (Hwang et al, 2008).
Recombinant human Angiopoietin-1 (rhAng1) and Vascular Endothelial Growth Factor ( rhVEGF) were […]
purchased from R&D Systems. […]
(structural/molecular weight control for VT), and 40 μL of supernatant (7% of residual/unbound ligand) – were similarly boiled in SDS sample buffer. Ang1 samples and controls were resolved by 7.5% polyacrylamide gel electrophoresis (PAGE), electroblotted onto PVDF membranes, and probed with an anti-Ang1 antibody (R&D Sytems, AF923; diluted 1:2,000 in TBS supplemented with 7% BSA and 0.1% Tween-20) at 75kDa (reduced monomers). VT samples and controls were resolved by 17% PAGE, blotted onto PVDF membranes, and probed with an anti-PEG antibody (Silver Lake Research, CH2074; diluted 1:4,000 in TBS supplemented with 7% BSA and 0.05% CHAPS*) at higher “apparent” molecular weights than the expected 14 and 10kDa due to their polymeric nature and large hydrodynamic radii (Zheng et al, 2007). *Note: non-ionic, PEO-based, polymer detergents were avoided at these steps as they cross-react with the anti-PEG antibody used for detecting VT.
Surface Plasmon Resonance (SPR) Experiments: The binding of analytes – VT, T7c peptide, PEG-Cys, rhAng1, COMP-Ang1, BowAng1, and rhVEGF – to the extracellular domain of Tie2 were […]
investigated by SPR using a Biacore T200 Instrument (GE Healthcare). For qualitative binding analysis, mTie2-Fc was dissolved in 10mM acetate buffer (pH 4.5) and immobilized at high density onto a CM5 sensor chip using amine coupling chemistry as described by the manufacturer to a response of 11,500RU.
Binding analysis were performed by exposure of immobilized mTie2-Fc to the analytes diluted in HBS-EP (0.01M HEPES pH 7.4, 0.15M NaCl, 3mM EDTA, 0.005% v/v Tween-20), which was supplemented with 1mg/mL carboxymethyl dextran (NSB reducer, GE Healthcare) to reduce non-specific binding to the sensor chip. Analytes were injected at 30μL/min (association time 120s, dissociation time 120s) at 37 °C, and the chip surface was regenerated each cycle by a 60s pulse of 4M MgCl2. To quantitatively determine the kinetic properties of the interaction (KD, kd, ka) and avoid mass transport limitations, mTie2-Fc and hTie2-Fc were immobilized at low density (1,000-1,200RU) onto separate flow cells of the CM5 chip using amine coupling chemistry. Kinetic analyses were performed using a single-cycle kinetic […]

[1] = Biacore T200, single-cycle kinetics, 1:1 model, 0.625–10 nM analyte, pH 7.4 (HBS-EP), Fig9C

T1 sequence (Q02763 23-748 limits assumed): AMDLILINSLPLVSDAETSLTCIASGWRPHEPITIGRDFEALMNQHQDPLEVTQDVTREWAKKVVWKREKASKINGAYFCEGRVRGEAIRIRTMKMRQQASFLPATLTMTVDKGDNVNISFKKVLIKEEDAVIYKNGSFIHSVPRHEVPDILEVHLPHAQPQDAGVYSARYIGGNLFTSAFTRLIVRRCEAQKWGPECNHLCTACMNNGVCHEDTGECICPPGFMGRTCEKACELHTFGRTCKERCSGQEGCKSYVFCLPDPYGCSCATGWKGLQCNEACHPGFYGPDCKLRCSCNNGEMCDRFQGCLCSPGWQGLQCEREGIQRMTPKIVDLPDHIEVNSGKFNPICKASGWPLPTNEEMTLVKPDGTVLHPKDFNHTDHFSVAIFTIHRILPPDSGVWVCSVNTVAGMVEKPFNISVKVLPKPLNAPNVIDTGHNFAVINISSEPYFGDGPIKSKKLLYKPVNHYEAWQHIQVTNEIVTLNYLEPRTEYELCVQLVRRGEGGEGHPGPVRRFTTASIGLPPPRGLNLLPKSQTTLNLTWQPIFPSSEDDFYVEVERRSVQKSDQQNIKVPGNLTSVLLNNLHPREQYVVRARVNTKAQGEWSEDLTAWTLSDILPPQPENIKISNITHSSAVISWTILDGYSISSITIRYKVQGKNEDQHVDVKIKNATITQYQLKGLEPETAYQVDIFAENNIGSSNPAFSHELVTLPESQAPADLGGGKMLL

Off-rate, Kd [1] [s⁻¹]	On-rate, Ka [1] [M⁻¹ s⁻¹]	binding to Tie2-Fc	Molecule	binding to Tie2-Fc (listed as VT)
–	–	–	CHHHRHSF [Vasculotide, 4-armed maleimide-functionalized polyethylene glycol (PEG) backbone to link together four cysteine-capped T7 peptides, that is, CHHHRHSF]	no binding to Tie2-Fc was detectable
0.00029	1.4e+06	bound strongly	recombinant human Ang1 (rhAng1) (ligand, UniProt Q15389 16-498, looked up, angiopoietin-1, human, recombinant; also called angiopoietin-1; source: bought: R&D Systems (named for the Boyden chamber experiments)) HIGCSNQRRSPENSGRRYNRIQHGQCAYTFILPEHDGNCRESTTDQYNTNALQRDAPHVEPDFSSQKLQHLEHVMENYTQWLQKLENYIVENMKSEMAQIQQNAVQNHTATMLEIGTSLLSQTAEQTRKLTDVETQVLNQTSRLEIQLLENSLSTYKLEKQLLQQTNEILKIHEKNSLLEHKILEMEGKHKEELDTLKEEKENLQGLVTRQTYIIQELEKQLNRATTNNSVLQKQQLELMDTVHNLVNLCTKEGVLLKGGKREEEKPFRDCADVYQAGFNKSGIYTIYINNMPEPKKVFCNMDVNGGGWTVIQHREDGSLDFQRGWKEYKMGFGNPSGEYWLGNEFIFAITSQRQYMLRIELMDWEGNRAYSQYDRFHIGNEKQNYRLYLKGHTGTAGKQSSLILHGADFSTKDADNDNCMCKCALMLTGGWWFDACGPSNLNGMFYTAGQNHGKLNGIKWHYFKGPSYSLRSTTMMIRPLDF	–

Reference: paper PMC4459817, “Vasculotide reduces endothelial permeability and tumor cell extravasation in the absence of binding to or agonistic activation of Tie2” (EMBO Molecular Medicine, 2015)
